Measurements: the supplement of paper PMC10567573
± gives the standard deviation.

Assay: protein stability index of a GFP-peptide fusion (GPS, HEK-293T) (PSI 1-6); higher = more stable
Conditions: c terminus: a fixed tail appended
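Note: 24-mer peptide tiles fused after GFP, lentivirally expressed, FACS-sorted into six equal bins by GFP/DsRed ratio, decoded by Illumina sequencing, PSI is the read-weighted mean bin number.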

Sequence | protein stability index (treatment: DMSO) | protein stability index (treatment: MLN4924 1 uM, 8 h)
KCDSLKEECIPEHMVRESKIMEAE [FAN1] | 5.2 ± 0.39 | 5 ± 0.22
KCPWMEGGEMSPQVETSIEGTIPF [INTS4] | 4.08 ± 0.27 | 4.03 ± 0.2
KCVTMSSAVVQLYAADRNCMWSKK [WASL] | 2.87 ± 0.18 | 2.88 ± 0.29
KDKEYAEIIRKQVSATKAEAEKDG [UBE2R2] | 5.39 ± 0.29 | 5.38 ± 0.21
KEISRKRRSIRYGREVELKPYIAA [PTPRD] | 3.27 ± 0.17 | 3.65 ± 0.44
KENSHQVKEELSQKFDTLYAILDE [TRIM63] | 4.77 ± 0.27 | 4.57 ± 0.18
KFKESFAEMNRGSNEWKTVVGGAM [COX4I1] | 3 ± 0.13 | 3.2 ± 0.29
KFPPEEELQREWLGNREALIQFLE [CPN1] | 3.69 ± 0.18 | 3.8 ± 0.18
KGEFKDEEETVTTKHIHITQATET [CLINT1] | 5.42 ± 0.059 | 5.4 ± 0.097
KGHERTVQYLQHLGTENLHLIFSY [VPS39] | 2.39 ± 0.46 | 2.59 ± 0.67
KHGSLNRYHNSHPLRERARKLSQG [YJU2B] | 3.73 ± 0.19 | 3.84 ± 0.12
KHLTARVLCLIVLPLALYTATFAV [POMT2] | 3.38 ± 0.42 | 3.15 ± 0.58
KIDDLMQEITEQQDIAQEISEAFS [CHMP4C] | 4.75 ± 0.35 | 4.67 ± 0.28
KIGFEIGIENEEDTSKQKKMETMY [ZNF449] | 4.08 ± 0.29 | 4.07 ± 0.22
KINKIRWLPQQNAAYFLLSTNDKT [PPP2R2B] | 2.69 ± 0.26 | 2.54 ± 0.039
KIRPDSSRPELLQPLNFVRFYLPL [GLT8D2] | 2.19 ± 0.42 | 2.17 ± 0.18
KKGSNGYGFYLRAGSEQKGQIIKD [PDZK1] | 3.19 ± 0.44 | 3.33 ± 0.27
KKKNTNKQEMGTYLRFIVSRMKER [ZMYND11] | 2.47 ± 0.16 | 2.92 ± 0.25
KLATEAGVEVIVRISHTLYDLDKI [CRY1] | 2.97 ± 0.32 | 3.13 ± 0.71
KLEESKQLLKNNEKLITWLNKELN [SASS6] | 2.24 ± 0.36 | 1.99 ± 0.73
KLFAHSSDLLSEFKKHDADKVGLI [PPEF2] | 2.63 ± 0.3 | 2.68 ± 0.38
KLPPYLIFCIKRFTKNNFFVEKNP [USP39] | 3.02 ± 0.12 | 2.75 ± 0.4

Sequence | protein stability index (treatment: DMSO) | protein stability index (treatment: MLN4924 1 uM, 8 h)
KMELLILETQAQVCQALAQVDGGA [CPOX] | 2.14 ± 0.52 | 2.18 ± 0.52
KMTDLLSRRLQLGSEENGRYFSLS [PCDHGC5] | 2.41 ± 0.16 | 2.47 ± 0.14
KMVPRYDLNRHLDEMCANNDFVQV [FAN1] | 2.81 ± 0.15 | 2.8 ± 0.46
KPDGTVEQIGHILVSWLPRLNAYR [NET1] | 2.21 ± 0.52 | 2.1 ± 0.1
KPILLHQVEALAAAGVDHVILAVS [GMPPB] | 2.55 ± 0.48 | 2.61 ± 0.5
KQNGRVAKVKGHRSQKHKERIRLL [C18orf25] | 3.9 ± 0.28 | 3.97 ± 0.29
KQSLVVAVQDHGQPPLSATVTLTV [PCDHGA10] | 2.72 ± 0.59 | 2.68 ± 0.45
KRESFLKYKCLLQQLYYTEADYED [IQUB] | 2.2 ± 0.31 | 2.49 ± 0.3
KRFVAMKVVKSAQHYTETALDEIK [SRPK2] | 2.97 ± 0.51 | 2.92 ± 0.38
KSYPSSELRNMCDEHIASEEPAEK [CLCN6] | 5.53 ± 0.2 | 5.44 ± 0.27
KTHTGEKPHRCHNCGKSFSRLTAL [ZNF449] | 2.47 ± 0.12 | 2.67 ± 0.45
KTTLGWKYEQAFESSQKYKEGKYI [YPEL3] | 2.37 ± 0.3 | 2.63 ± 0.17
KVGKLAATAVGGGFFLLQLANHTG [FUNDC2] | 2.38 ± 0.59 | 2.46 ± 0.87
KVPRPDALDNESWGFVHPRLLSVP [RETREG3] | 2.91 ± 0.13 | 2.74 ± 0.081
KVVKGHRPELPPVCRARPRACSHL [RIPK4] | 3.19 ± 0.36 | 3.04 ± 0.46
KYDYLMTLHGVVNESTVCLMSYER [TENT5D] | 2.38 ± 0.34 | 2.36 ± 0.22
KYNHAACFGLQPGCLLPDGSRMMA [NLN] | 2.59 ± 0.27 | 2.55 ± 0.33
KYRSYEEFKADAQLLLHNTVIFYG [ZMYND11] | 2 ± 0.46 | 2.07 ± 0.33
LAAVTPHDFIEHILRKLPQQREKL [CCND2] | 2.53 ± 0.17 | 2.74 ± 0.23
LAFPLKHPDSWRAYPFYWAWLPQA [PI4K2A] | 2.42 ± 0.65 | 2.48 ± 0.84
LAICRPLTYSTRMSQTVQRMLVAA [OR3A1] | 2.49 ± 0.17 | 2.54 ± 0.14
LAYLPFKLEKSIDSYYRLVIHRAL [PCDHGA10] | 2.25 ± 0.62 | 2.23 ± 0.81

Sequence | protein stability index (treatment: DMSO) | protein stability index (treatment: MLN4924 1 uM, 8 h)
LCEPDPVHFSEAIEKFIREPSLKA [ALG2] | 3.81 ± 0.19 | 3.91 ± 0.19
LCHCGKAFSHKSMRDRHVNMHLNL [ZBTB22] | 2.21 ± 0.45 | 2.32 ± 0.14
LCIHTGRELRCKVFPIKHYQDKIR [TRIB1] | 2.27 ± 0.52 | 2.18 ± 0.18
LCSVGASKAVFLWNMDKYTMIRKL [WSB1] | 2.34 ± 0.4 | 2.17 ± 0.31
LDDIIRHDFFLQGFTPDRLSSSCC [PLK2] | 2.48 ± 0.043 | 2.64 ± 0.3
LDFTHPKARDWFQGHLRRLRSRYS [MYORG] | 2.79 ± 0.39 | 2.97 ± 0.074
LDPWFAGSSNVGINRWRFLLQCLE [CRY1] | 2.5 ± 0.36 | 2.54 ± 0.23
LDSRSTDRVLQWERIDCQGIPPSS [KLHDC2] | 4.09 ± 0.29 | 3.98 ± 0.24
LEDTCKTIEECCRKQKQELCEKFD [TRIM55] | 4.86 ± 0.094 | 4.74 ± 0.25
LEEAKQPKNDNVVIPECAHGGLYK [SMOC2] | 5.31 ± 0.14 | 5.146 ± 0.035
LEEEEEEEDLVLTCEDDEDEELGG [ZBTB22] | 5.57 ± 0.2 | 5.56 ± 0.18
LEGAQAPLAVEEDASSSTSTSSSF [MAGEA10] | 5.66 ± 0.14 | 5.55 ± 0.2
LEKEEEKDLVMYSKCQRLFRSPSM [CDC25B] | 3.69 ± 0.39 | 3.57 ± 0.18
LENELDLKLVSFSKLCTSYSHSST [GOSR1] | 2.98 ± 0.13 | 2.93 ± 0.16
LENRIQREIALAKKHGTQNKRAAL [CHMP4C] | 4.09 ± 0.26 | 4.04 ± 0.25
LEQRRQQASEREAPSIEQRLQEVR [FCHSD1] | 5.37 ± 0.32 | 5.26 ± 0.12
LFKAHFRGEVLPEEITEESLEESV [INTS3] | 4.9 ± 0.091 | 4.962 ± 0.037
LFNILAKFNGITEKEYKTYKENFL [USP39] | 2.16 ± 0.43 | 2.5 ± 0.25
LFSLKESPEKFQIEANFPRRVLPC [FAF2] | 2.61 ± 0.3 | 2.84 ± 0.24
LGKITFIRNSRPLVKKVEEDEAGG [UFD1] | 3.99 ± 0.34 | 3.94 ± 0.25
LGLAGRCLTLTPRPATEAELLTCH [HDAC6] | 2.86 ± 0.26 | 2.7 ± 0.4
